Data taken from US20170348397A1 (Janssen / Centocor, published 2017).

What was measured:
Human Serum Albumin = biological target: T1, Human Serum Albumin (human, UniProt P02768 25-609); assay: IMAC pull-down from normal serum, SDS-PAGE with Coomassie stain
T1 construct: also called HSA
Experimental: (§1) To evaluate the functionality of binders, selected FN3 domains were tested for their ability to complex with endogenous albumin in normal serum. To ensure that albumin binding was preserved when selected FN3 domains were attached at either the amino or carboxy terminus of another FN3 domain, bivalent FN3 genes were prepared to generate constructs ALB18, ALB 30, ALB 21, ALB33, ALB34 and ALB35 (Table 6).
(§2) C-terminally His6-tagged (SEQ ID NO: 72) bivalent FN3 domains (0.25-2.0 mg/mL in DPBS without calcium or magnesium) were mixed in a 1:1 volumetric ratio with normal serum and incubated for 1 hour at room temperature to allow binding to endogenous albumin in the serum. His6-tagged (SEQ ID NO: 72) FN3 domain-albumin complexes were recovered from serum via immobilized metal affinity chromatography (IMAC) using 200+ PhyTip columns containing a 5 μL resin bed (PureSpeed™ Protein Tip IMAC from Rainin Instrument LLC; Oakland, Calif.) pre-equilibrated with 50 mM Tris, pH 7.0 containing 500 mM NaCl and 10 mM imidazole. Unbound serum proteins were removed by exhaustively washing the resin with equilibration buffer. Bound protein was eluted with 25-100 μL of elution buffer (50 mM Tris, pH 7.0 containing 500 mM NaCl and 250 mM imidazole, pH 7.5). Eluates were analyzed by SDS-PAGE for the co-precipitation of albumin. SDS-PAGE gels were stained with colloidal Coomassie. […]

Cynomolgus Serum Albumin = biological target: T2, Cynomolgus Serum Albumin (cynomolgus monkey, UniProt A2V9Z4 25-608); assay: as above
T2 construct: also called Macaca Fascicularis (cynomolgus monkey) serum albumin
T2 sequence (A2V9Z4 25-608 limits assumed): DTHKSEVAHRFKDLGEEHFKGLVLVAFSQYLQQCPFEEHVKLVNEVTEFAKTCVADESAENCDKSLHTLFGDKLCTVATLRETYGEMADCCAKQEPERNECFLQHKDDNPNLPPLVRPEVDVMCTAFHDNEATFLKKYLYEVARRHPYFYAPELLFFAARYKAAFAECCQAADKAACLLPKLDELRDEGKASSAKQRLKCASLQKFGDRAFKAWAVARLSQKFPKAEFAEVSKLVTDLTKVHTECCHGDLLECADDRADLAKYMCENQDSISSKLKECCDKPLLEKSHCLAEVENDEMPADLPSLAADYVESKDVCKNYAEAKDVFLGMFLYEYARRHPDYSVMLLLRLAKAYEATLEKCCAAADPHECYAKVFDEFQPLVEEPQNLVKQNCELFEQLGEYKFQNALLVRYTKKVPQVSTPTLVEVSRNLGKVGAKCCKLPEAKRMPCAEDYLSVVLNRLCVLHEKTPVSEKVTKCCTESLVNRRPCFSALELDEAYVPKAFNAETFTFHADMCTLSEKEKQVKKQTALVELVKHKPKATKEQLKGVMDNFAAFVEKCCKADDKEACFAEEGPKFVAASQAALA
Experimental: as §1, §2

T1 sequence (P02768 25-609 limits assumed): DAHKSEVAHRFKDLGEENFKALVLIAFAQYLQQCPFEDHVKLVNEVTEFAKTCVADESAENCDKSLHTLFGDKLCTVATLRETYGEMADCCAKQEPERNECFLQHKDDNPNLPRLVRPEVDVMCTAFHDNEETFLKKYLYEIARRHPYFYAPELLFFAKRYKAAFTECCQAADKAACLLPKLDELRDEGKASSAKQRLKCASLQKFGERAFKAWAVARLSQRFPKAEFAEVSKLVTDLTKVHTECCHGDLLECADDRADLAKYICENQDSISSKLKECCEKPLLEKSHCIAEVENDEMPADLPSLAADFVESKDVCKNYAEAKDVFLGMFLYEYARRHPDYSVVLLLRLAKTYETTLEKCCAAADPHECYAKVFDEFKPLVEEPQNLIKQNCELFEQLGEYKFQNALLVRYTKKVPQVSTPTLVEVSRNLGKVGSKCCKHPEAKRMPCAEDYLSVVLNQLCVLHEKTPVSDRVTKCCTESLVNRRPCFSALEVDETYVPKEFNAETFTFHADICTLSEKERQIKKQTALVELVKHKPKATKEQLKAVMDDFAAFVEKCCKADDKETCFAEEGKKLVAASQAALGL

B1: Tencon25 (designed binder)
chain: LPAPKNLVVSEVTEDSARLSWTAPDAAFDSFLIQYQESEKVGEAIVLTVPGSERSYDLTGLKPGTEYTVSIYGVKGGHRSNPLSAIFTT
notes: Negative control of the pull-down; also called Tc25; TC25
B1: no binding (Human Serum Albumin); no binding (Cynomolgus Serum Albumin).
